What all share (experiment): SPR (Biacore)
In one test the target is T1, LLB2-10-6 Mono (Homo sapiens (Human), UniProt P0DOX5 233-449 = IgG part; P0DOX5 233-449 = IgG part, T366W).
T1 construct: Fc parts only
In outline:
(§1)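 Surface plasmon resonance on a Biacore instrument was used to measure the binding affinity (Kd) of engineered Fc polypeptides for CD98hc. Each clone was cloned, expressed and purified as an Fc-Fab fusion bearing anti-BACE1 Fabs. Testing used either a bivalent format or a monovalent knob/hole format in which only the knob chain carried the CD98hc-binding site.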

Test [1] concerns the target T2, LLB2-37 (monovalent, Table A6) (Homo sapiens (Human), UniProt P0DOX5 233-449 = IgG part; P0DOX5 233-449 = IgG part, T366W).
T2 construct: Fc parts only
Summed up: as §1

Another test concerns the target T3, LLB2.10.8.2.1 (Homo sapiens (Human), UniProt P0DOX5 233-449 = IgG part; P0DOX5 233-449 = IgG part, T366W).
T3 construct: Fc parts only
In outline: as §1

The target in the next test is T4, LLB2.10.8.12.5 (Homo sapiens (Human), UniProt P0DOX5 233-449 = IgG part; P0DOX5 233-449 = IgG part, T366W).
T4 construct: Fc parts only
In outline:
as §1

In another test the target is T5, LLB2.10.8.4.12 (Homo sapiens (Human), UniProt P0DOX5 233-449 = IgG part; P0DOX5 233-449 = IgG part, T366W).
T5 construct: Fc parts only
In outline:
as §1

In another test the target is T6, LLB2.10.8.10.1 (Homo sapiens (Human), UniProt P0DOX5 233-449 = IgG part; P0DOX5 233-449 = IgG part, T366W).
T6 construct: Fc parts only
Summed up:
as §1

In the next test the target is T7, LLB2.10.8.10.3 (Homo sapiens (Human), UniProt P0DOX5 233-449 = IgG part; P0DOX5 233-449 = IgG part, T366W).
T7 construct: Fc parts only
In outline:
as §1

In a further test the target is T8, LLB2.10.8.10.8 (Homo sapiens (Human), UniProt P0DOX5 233-449 = IgG part; P0DOX5 233-449 = IgG part, T366W).
T8 construct: Fc parts only
Summed up:
as §1

A further test concerns the target T9, LLB2-10-8-d1 MV (Homo sapiens (Human), UniProt P0DOX5 233-449 = IgG part; P0DOX5 233-449 = IgG part, T366W).
T9 construct: Fc parts only; MV = monovalent
Summed up: as §1

The next test concerns the target T10, LLB2-10-8-d3 MV (Homo sapiens (Human), UniProt P0DOX5 233-449 = IgG part; P0DOX5 233-449 = IgG part, T366W).
T10 construct: Fc parts only; MV = monovalent
Summed up:
as §1

B1: human CD98hc (receptor)
chain: CRELPAQKWWHTGALYRIGDLQAFQGHGAGNLAGLKGRLDYLSSLKVKGLVLGPIHKNQKDDVAQTDLLQIDPNFGSKEDFDSLLQSAKKKSIRVILDLTPNYRGENSWFSTQVDTVATKVKDALEFWLQAGVDGFQVRDIENLKDASSFLAEWQNITKGFSEDRLLIAGTNSSDLQQILSLLESNKDLLLTSSYLSDSGSTGEHTKSLVTQYLNATGNRWCSWSLSQARLLTSFLPAQLLRLYQLMLFTLPGTPVFSYGDEIGLDAAALPGQPMEAPVMLWDESSFPDIPGAVSANMTVKGQSEDPGSLLSLFRRLSDQRSKERSLLHGDFHAFSAGPGLFSYIRHWDQNERFLVVLNFGDVGLSAGLQASDLPASASLPAKADLLLSTQPGREEGSPLELERLKLEPHEGLLLRFPYAA
notes: also called huCD98hc; CD98 heavy chain
For B1, the Kd in the test with LLB2-10-6 Mono came to 420 nM; in test [1], 390 nM; with LLB2.10.8.2.1, 110 nM; with LLB2.10.8.12.5, 230 nM; in the test with LLB2.10.8.4.12 it was 15 nM; with LLB2.10.8.10.1, 54 nM. Further, the Kd with LLB2.10.8.10.3 worked out at 43 nM; in the test with LLB2.10.8.10.8, 94 nM; with LLB2-10-8-d1 MV, 250 nM; with LLB2-10-8-d3 MV it was 470 nM.
